Measurements published in the Immune Epitope Database (IEDB).

Assays:
HLA-A*26:02 = experiment: IEDB peptide-MHC binding, purified MHC/competitive/fluorescence; filed as Kd, often an IC50 or EC50 that approximates it; ≥ and ≤ were set here for values at or beyond the usual limits of such assays; conditions: source organism: Francisella tularensis subsp. tularensis FSC198
HLA-A*01:01 [1] = experiment: as above; conditions: source organism: Francisella tularensis subsp. tularensis FSC198
HLA-A*26:01 = experiment: as above
HLA-A*31:01 = experiment: IEDB peptide-MHC binding, purified MHC/direct/fluorescence; filed as Kd, often an IC50 or EC50 that approximates it; ≥ and ≤ were set here for values at or beyond the usual limits of such assays
HLA-A*26:03 = experiment: as above
HLA-A*02:01 = experiment: as above
HLA-B*15:09 = experiment: as above; conditions: source organism: Francisella tularensis subsp. tularensis FSC033
HLA-B*07:02 = experiment: as above
HLA-A*69:01 [2] = experiment: as above
HLA-B*58:01 = experiment: as above
HLA-B*18:01 [3] = experiment: as above
HLA-B*39:01 [4] = experiment: as above; conditions: source organism: Francisella tularensis subsp. tularensis FSC033
HLA-B*15:01 = experiment: as above
HLA-B*08:01 = experiment: as above; conditions: source organism: Francisella tularensis subsp. holarctica LVS
HLA-A*68:02 = experiment: as above
HLA-A*11:01 = experiment: as above
HLA-B*57:01 = experiment: as above
HLA-B*08:02 = experiment: as above; conditions: source organism: Orthomarburgvirus marburgense
HLA-B*27:05 = experiment: as above; conditions: source organism: Marburg virus - Musoke, Kenya, 1980
HLA-A*01:01 [5] = experiment: as above
HLA-B*46:01 [6] = experiment: as above; conditions: source organism: Marburg virus - Musoke, Kenya, 1980
HLA-B*40:01 = experiment: as above; conditions: source organism: Marburg virus - Musoke, Kenya, 1980
HLA-A*03:01 = experiment: as above
HLA-B*15:17 = experiment: as above; conditions: source organism: Marburg virus - Musoke, Kenya, 1980
HLA-B*48:01 = experiment: as above; conditions: source organism: Marburg virus - Musoke, Kenya, 1980
HLA-A*68:23 = experiment: IEDB peptide-MHC binding, purified MHC/competitive/fluorescence; filed as Kd, often an IC50 or EC50 that approximates it; ≥ and ≤ were set here for values at or beyond the usual limits of such assays; conditions: source organism: human gammaherpesvirus 4
HLA-B*83:01 = experiment: as above; conditions: source organism: human gammaherpesvirus 4
HLA-C*14:02 = experiment: as above; conditions: source organism: human gammaherpesvirus 4
HLA-B*45:06 = experiment: as above; conditions: source organism: human gammaherpesvirus 4
HLA-B*15:42 = experiment: as above; conditions: source organism: human gammaherpesvirus 4
HLA-B*27:03 = experiment: as above; conditions: source organism: Orthohantavirus khabarovskense
HLA-A*69:01 [7] = experiment: as above; conditions: source organism: Orthohantavirus khabarovskense
HLA-B*46:01 [8] = experiment: as above; conditions: source organism: Orthohantavirus khabarovskense
HLA-B*18:01 [9] = experiment: as above; conditions: source organism: Orthohantavirus khabarovskense
HLA-B*39:01 [10] = experiment: as above; conditions: source organism: Orthohantavirus khabarovskense
HLA-B*35:01 = experiment: as above; conditions: source organism: Orthohantavirus khabarovskense
HLA-A*23:01 = experiment: IEDB peptide-MHC binding, purified MHC/direct/fluorescence; filed as Kd, often an IC50 or EC50 that approximates it; ≥ and ≤ were set here for values at or beyond the usual limits of such assays; conditions: source organism: Choclo virus
HLA-C*12:03 = experiment: as above; conditions: source organism: Orthohantavirus khabarovskense
HLA-A*02:19 = experiment: as above; conditions: source organism: Choclo virus
HLA-A*02:03 = experiment: as above; conditions: source organism: Choclo virus
HLA-A*24:03 = experiment: as above; conditions: source organism: Choclo virus
HLA-A*02:12 = experiment: as above; conditions: source organism: Choclo virus
HLA-C*08:02 = experiment: as above; conditions: source organism: Orthohantavirus khabarovskense
HLA-C*03:03 = experiment: as above; conditions: source organism: Orthohantavirus khabarovskense
[11] = source organism: Francisella tularensis subsp. holarctica LVS
[12] = source organism: Francisella tularensis subsp. tularensis FSC033
[13] = source organism: Marburg virus - Musoke, Kenya, 1980
[14] = source organism: Orthohantavirus andesense

Measured: Kd

EFKQILTDF
1.03 µM: HLA-B*18:01 [3]; [12]
6 µM: HLA-B*08:01
≥ 20 µM: HLA-A*01:01 [1] | HLA-A*26:01; source organism: Francisella tularensis subsp. tularensis FSC198 | HLA-A*31:01; [11] | HLA-A*26:03; [12] | HLA-A*02:01; [11] | HLA-B*15:09 | HLA-B*07:02; [11] | HLA-A*69:01 [2]; [11] | HLA-B*58:01; [11] | HLA-B*39:01 [4] | HLA-B*15:01; [11] | HLA-A*68:02; [11] | HLA-A*11:01; [11] | HLA-B*57:01; [11]
0.457 µM: HLA-A*26:02

KLDFIRNTK
2.16 µM: HLA-A*31:01; [13]
0.604 µM: HLA-A*11:01; [13]
0.0444 µM: HLA-A*03:01; [13]
≥ 20 µM: HLA-B*08:02 | HLA-B*27:05 | HLA-A*26:03; source organism: Orthomarburgvirus marburgense | HLA-A*02:01; [13] | HLA-B*07:02; [13] | HLA-A*69:01 [2]; [13] | HLA-A*01:01 [5]; [13] | HLA-B*58:01; [13] | HLA-B*46:01 [6] | HLA-B*40:01 | HLA-B*18:01 [3]; [13] | HLA-B*15:01; [13] | HLA-B*15:17 | HLA-A*68:02; [13] | HLA-B*48:01 | HLA-B*57:01; [13]

YTGAMTSKF
0.0715 µM: HLA-A*68:23
0.394 µM: HLA-C*14:02
≥ 5 µM: HLA-B*83:01 | HLA-B*45:06 | HLA-B*15:42

FSLPSSSSY
≥ 20 µM: HLA-B*27:03 | HLA-A*69:01 [7] | HLA-B*18:01 [9] | HLA-B*39:01 [10] | HLA-A*26:01; source organism: Orthohantavirus khabarovskense | HLA-A*23:01 | HLA-A*02:19 | HLA-A*02:03 | HLA-A*24:03 | HLA-A*03:01; source organism: Choclo virus | HLA-A*02:12 | HLA-A*68:02; source organism: Choclo virus | HLA-C*08:02
≤ 0.0001 µM: HLA-B*35:01
0.0707 µM: HLA-B*46:01 [8]
0.0218 µM: HLA-B*58:01; [14]
0.028 µM: HLA-C*03:03
0.377 µM: HLA-A*01:01 [5]; [14]
0.043 µM: HLA-C*12:03
